The record followed here is article PMC7311918.

The target of the test is SARS-CoV-2 S 2P trimer (S ectodomain, residues 16-1206) (SARS-CoV-2) (UniProt P0DTC2). As to the kind of experiment: SEC-MALS.

In the case of “SARS-CoV-2 S 2P trimer (S ectodomain, residues 16-1206) (from UniProt P0DTC2 16-1206) (natural protein)”, the stoichiometry N was 3.

For orientation: stoichiometry N means a count of units in the complex or per binding partner.
